Data taken from patent publication US20180327500A1 (SYMPHOGEN A S, published 2018).
Residue numbers refer to the chain shown, from its start.

Assays:
Test in all cases: flow cytometry on transfected HEK293 cells;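 also: antibodies applied at 50 µg/ml, binding called specific when fluorescence exceeds the mean signal on a negative control chicken or mouse MET construct plus four SD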
[1] = molecular target: T1, Mouse Blade 1-4
T1 construct: human/mouse chimera on transfected HEK293 cells; also called AA 25-295
Description: (§1) Cut-off values defined as the average fluorescence signal of all antibodies tested at 50 μg/ml to the negative control chicken or mouse MET construct+four standard deviations were employed to discriminate background binding from specific binding for the domain exchange or blade exchange constructs.
T1 MET ECD-SV5-GPI fusion: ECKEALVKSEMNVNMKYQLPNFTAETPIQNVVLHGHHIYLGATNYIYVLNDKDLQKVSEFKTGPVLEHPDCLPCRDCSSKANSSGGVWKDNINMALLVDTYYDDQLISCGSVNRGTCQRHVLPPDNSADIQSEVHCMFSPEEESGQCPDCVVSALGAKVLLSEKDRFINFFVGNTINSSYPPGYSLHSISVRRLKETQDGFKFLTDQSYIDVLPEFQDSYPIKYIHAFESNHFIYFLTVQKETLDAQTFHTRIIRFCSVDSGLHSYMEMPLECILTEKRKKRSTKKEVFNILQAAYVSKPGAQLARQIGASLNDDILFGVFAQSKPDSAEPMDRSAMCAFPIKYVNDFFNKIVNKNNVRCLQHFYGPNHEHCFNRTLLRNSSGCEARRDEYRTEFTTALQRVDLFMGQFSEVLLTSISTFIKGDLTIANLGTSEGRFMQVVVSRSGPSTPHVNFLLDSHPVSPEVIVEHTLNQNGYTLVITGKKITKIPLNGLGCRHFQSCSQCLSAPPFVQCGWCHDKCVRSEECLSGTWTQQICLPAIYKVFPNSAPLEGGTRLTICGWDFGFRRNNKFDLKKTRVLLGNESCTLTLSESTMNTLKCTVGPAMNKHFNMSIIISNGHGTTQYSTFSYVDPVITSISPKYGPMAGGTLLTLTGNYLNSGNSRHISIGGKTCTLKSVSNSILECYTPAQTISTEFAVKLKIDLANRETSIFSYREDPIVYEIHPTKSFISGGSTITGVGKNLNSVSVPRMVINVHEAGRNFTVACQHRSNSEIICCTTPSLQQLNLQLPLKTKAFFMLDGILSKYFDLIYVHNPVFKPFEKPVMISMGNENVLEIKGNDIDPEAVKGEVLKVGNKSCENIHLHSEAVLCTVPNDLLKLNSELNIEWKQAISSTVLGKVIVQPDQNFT

[2] = molecular target: T2, Mouse blade 2
T2 construct: human/mouse chimera on transfected HEK293 cells; also called Mouse blade 2-IPT4
Description: as §1
T2 MET ECD-SV5-GPI fusion: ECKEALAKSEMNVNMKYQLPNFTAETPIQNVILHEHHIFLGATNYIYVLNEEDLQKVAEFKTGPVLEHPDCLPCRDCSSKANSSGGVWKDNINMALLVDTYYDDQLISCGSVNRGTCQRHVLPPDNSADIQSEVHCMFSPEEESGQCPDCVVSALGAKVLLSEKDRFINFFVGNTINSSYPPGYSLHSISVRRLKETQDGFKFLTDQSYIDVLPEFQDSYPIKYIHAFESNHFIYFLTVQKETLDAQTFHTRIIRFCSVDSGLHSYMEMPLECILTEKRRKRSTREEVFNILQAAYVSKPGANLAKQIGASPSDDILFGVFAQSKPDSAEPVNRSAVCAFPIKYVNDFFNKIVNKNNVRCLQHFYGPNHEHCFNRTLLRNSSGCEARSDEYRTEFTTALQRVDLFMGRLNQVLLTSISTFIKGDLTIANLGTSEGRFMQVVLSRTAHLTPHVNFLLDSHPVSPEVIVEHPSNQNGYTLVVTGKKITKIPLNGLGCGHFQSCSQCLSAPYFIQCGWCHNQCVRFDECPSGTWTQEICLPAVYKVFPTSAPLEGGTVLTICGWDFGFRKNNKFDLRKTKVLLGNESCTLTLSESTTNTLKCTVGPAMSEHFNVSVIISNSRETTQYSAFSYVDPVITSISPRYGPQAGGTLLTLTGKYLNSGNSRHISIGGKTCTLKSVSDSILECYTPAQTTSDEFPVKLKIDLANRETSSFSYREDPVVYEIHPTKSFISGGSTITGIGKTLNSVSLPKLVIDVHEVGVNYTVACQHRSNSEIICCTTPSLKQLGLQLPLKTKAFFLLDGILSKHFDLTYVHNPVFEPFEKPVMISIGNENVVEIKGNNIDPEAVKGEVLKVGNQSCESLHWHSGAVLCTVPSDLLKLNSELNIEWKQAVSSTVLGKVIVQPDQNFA

[3] = molecular target: T3, Mouse MET
T3 construct: on transfected HEK293 cells; also called murine MET ECD-SV5-GPI
Description: as §1
T3 MET ECD-SV5-GPI fusion: T2 MET ECD-SV5-GPI fusion with A7V, I32V, E35G, F39Y, E51D, E52K, A58S

Measured: binding result

B1: humanized antibody 9006 (antibody, human IgG1, kappa, V domains shown)
VH: QVQLVQSGSELKKPGASVKVSCKASGYTFTNFRMNWVKQAPGQGLKWMGWINTYTGEPTYVDDLKGRFVFSLDTSVSTAYLQISSLKAEDTAVYYCARKGIARAMDYWGQGTTVTVSS
VL: DIVMTQSPDSLAVSLGERATINCKSSQSLLDSGNQKNYLAWYQQKPGQPPKLLIFGASTRESGVPDRFSGSGSGTDFTLTISSLQAEDVAVYYCQNDHSYPYTFGQGTKLEIKR
notes: also called Hu9006; hu9006
no binding (tested: 50 µg/ml): all assays above

B2: humanized antibody 9338 (antibody, human IgG1, kappa, V domains shown)
VH: QVQLVQSGAEVKKPGSSVKVSCKASGYTFTSYWMHWVRQAPGQGLEWMGYINPSSGHIENNQKFKDRVTITADKSTSTAYMELSSLRSEDTAVYYCARGRFAYWGQGTLVTVSS
VL: EIVLTQSPATLSLSPGERATLSCSASSSVSSGYLYWYQQKPGQAPRLLIYSTSNLASGIPARFSGSGSGTDFTLTISSLEPEDFAVYYCHQWSSYPFTFGSGTKLEIKR
notes: also called Hu9338; hu9338
no binding (tested: 50 µg/ml): all assays above
